Results published in PMC4570232 (Cell reports, 2015).

Columns and labels:
FLAG-tagged Ragulator = FLAG-tagged Ragulator (UniProt Q6IAA8 1-161; Q9UHA4 1-124; Q9Y2Q5 1-125; O43504 1-91; Q0VGL1 1-99, G2A); experiment: pull-down
HA-GST-tagged Ragulator = HA-GST-tagged Ragulator (UniProt Q9Y2Q5 1-125; Q9UHA4 1-124; Q6IAA8 1-161; O43504 1-91; Q0VGL1 1-99, G2A); experiment: pull-down

B1: FLAG-tagged c17orf59 (natural protein)
chain: MESSRGRPGPETDLLAVAEHQALVFGGGPGRTSSEPPAGLRVSGEEETENVGGANRHPRTSPKTSSCGVVHRPEREALENEPGPQGTLSGAGSRRGAPGAEHEPSLSSRHKNPAPPEGKPSSGRDCRRGGPGGGMDVEQQEEEDNDEEAAAGSRAGRSFSSRLQDSRSLDGLSEACGGAGSSGSAESGAGGGRRATISSPLELEGTVSRHGDLTHFVANNLQLKIRLSGAPPPPPSAPARPCPAPAPTPTPAIPPIDPEVLRDLERLSRELGGRVDRLLRGLGGAVQELTALSVGCIQTYRDAVDSLGEAVDMSIKGMYTLLARCEELERALQPVQGLARQVRDIRRTLEVLEALCK
binding result (FLAG-tagged Ragulator): binds
binding result (HA-GST-tagged Ragulator): binds
